Experimental data as given in doi:10.1101/2023.05.30.542914 (bioRxiv, 2023).

Target: T1, COPB2_(1-304), N-terminal WD-repeat domain of the COPB2 coatomer subunit (S. cerevisiae, UniProt P41811 1-304)
T1 sequence: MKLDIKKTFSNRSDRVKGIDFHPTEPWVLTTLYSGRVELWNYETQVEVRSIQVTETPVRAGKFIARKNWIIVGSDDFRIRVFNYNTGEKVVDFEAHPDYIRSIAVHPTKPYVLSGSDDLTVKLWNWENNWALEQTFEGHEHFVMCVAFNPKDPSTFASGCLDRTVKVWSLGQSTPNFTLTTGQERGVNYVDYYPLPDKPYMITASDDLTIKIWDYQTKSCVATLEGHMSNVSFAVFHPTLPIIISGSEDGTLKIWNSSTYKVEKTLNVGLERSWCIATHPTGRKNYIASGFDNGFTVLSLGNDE
Assay: ITC

## LKIKKP [Wnt_(252-257) peptide (LKIKKP), C-terminal half of the EBP]
  Kd: 37.2 µM

## PVRASRNKRPTFLKIKKP [Exosome Binding Peptide (EBP) of Wnt7a, 18 aa polypeptide (240-257)]
  Kd: 11.6 µM
